{"source": "paper doi:10.1101/2021.01.21.427698", "about": "(bioRxiv, 2021)", "binders": {"B1": {"name": "human SEPT2 with a TEV-cleavable N-terminal His6-tag (natural protein)", "chain": "MSKQQPTQFINPETPGYVGFANLPNQVHRKSVKKGFEFTLMVVGESGLGKSTLINSLFLTDLYPERVIPGAAEKIERTVQIEASTVEIEERGVKLRLTVVDTPGYGDAINCRDCFKTIISYIDEQFERYLHDESGLNRRHIIDNRVHCCFYFISPFGHGLKPLDVAFMKAIHNKVNIVPVIAKADTLTLKERERLKKRILDEIEEHNIKIYHLPDAESDEDEDFKEQTRLLKASIPFSVVGSNQLIEAKGKKVRGRLYPWGVVEVENPEHNDFLKLRTMLITHMQDLQEVTQDLHYENFRSERLKRGGRKVENEDMNKDQILLEKEAELRRMQEMIARMQAQMQMQMQGGDGDGGALGHHV"}, "B2": {"name": "SEPT2-msfGFP human septin octamers containing SEPT9_i1 (complex)", "chain 1": "MSKQQPTQFINPETPGYVGFANLPNQVHRKSVKKGFEFTLMVVGESGLGKSTLINSLFLTDLYPERVIPGAAEKIERTVQIEASTVEIEERGVKLRLTVVDTPGYGDAINCRDCFKTIISYIDEQFERYLHDESGLNRRHIIDNRVHCCFYFISPFGHGLKPLDVAFMKAIHNKVNIVPVIAKADTLTLKERERLKKRILDEIEEHNIKIYHLPDAESDEDEDFKEQTRLLKASIPFSVVGSNQLIEAKGKKVRGRLYPWGVVEVENPEHNDFLKLRTMLITHMQDLQEVTQDLHYENFRSERLKRGGRKVENEDMNKDQILLEKEAELRRMQEMIARMQAQMQMQMQGGDGDGGALGHHV", "chain 2": "MAATDIARQVGEGCRTVPLAGHVGFDSLPDQLVNKSVSQGFCFNILCVGETGLGKSTLMDTLFNTKFEGEPATHTQPGVQLQSNTYDLQESNVRLKLTIVSTVGFGDQINKEDSYKPIVEFIDAQFEAYLQEELKIRRVLHTYHDSRIHVCLYFIAPTGHSLKSLDLVTMKKLDSKVNIIPIIAKADAISKSELTKFKIKITSELVSNGVQIYQFPTDDESVAEINGTMNAHLPFAVIGSTEELKIGNKMMRARQYPWGTVQVENEAHCDFVKLREMLIRVNMEDLREQTHTRHYELYRRCKLEEMGFKDTDPDSKPFSLQETYEAKRNEFLGELQKKEEEMRQMFVQRVKEKEAELKEAEKELHEKFDRLKKLHQDEKKKLEDKKKSLDDEVNAFKQRKTAAELLQSQGSQAGGSQTLKRDKEKKN", "chain 3": "MSVSARSAAAEERSVNSSTMVAQQKNLEGYVGFANLPNQVYRKSVKRGFEFTLMVVGESGLGKSTLINSLFLTDLYSPEYPGPSHRIKKTVQVEQSKVLIKEGGVQLLLTIVDTPGFGDAVDNSNCWQPVIDYIDSKFEDYLNAESRVNRRQMPDNRVQCCLYFIAPSGHGLKPLDIEFMKRLHEKVNIIPLIAKADTLTPEECQQFKKQIMKEIQEHKIKIYEFPETDDEEENKLVKKIKDRLPLAVVGSNTIIEVNGKRVRGRQYPWGVAEVENGEHCDFTILRNMLIRTHMQDLKDVTNNVHYENYRSRKLAAVTYNGVDNNKNKGQLTKSPLAQMEEERREHVAKMKKMEMEMEQVFEMKVKEKVQKLKDSEAELQRRHEQMKKNLEAQHKELEEKRRQFEDEKANWEAQQRILEQQNSSRTLEKNKKKGKIF", "chain 4": "MKKSYSGGTRTSSGRLRRLGDSSGPALKRSFEVEEVETPNSTPPRRVQTPLLRATVASSTQKFQDLGVKNSEPSARHVDSLSQRSPKASLRRVELSGPKAAEPVSRRTELSIDISSKQVENAGAIGPSRFGLKRAEVLGHKTPEPAPRRTEITIVKPQESAHRRMEPPASKVPEVPTAPATDAAPKRVEIQMPKPAEAPTAPSPAQTLENSEPAPVSQLQSRLEPKPQPPVAEATPRSQEATEAAPSCVGDMADTPRDAGLKQAPASRNEKAPVDFGYVGIDSILEQMRRKAMKQGFEFNIMVVGQSGLGKSTLINTLFKSKISRKSVQPTSEERIPKTIEIKSITHDIEEKGVRMKLTVIDTPGFGDHINNENCWQPIMKFINDQYEKYLQEEVNINRKKRIPDTRVHCCLYFIPATGHSLRPLDIEFMKRLSKVVNIVPVIAKADTLTLEERVHFKQRITADLLSNGIDVYPQKEFDEDSEDRLVNEKFREMIPFAVVGSDHEYQVNGKRILGRKTKWGTIEVENTTHCEFAYLRDLLIRTHMQNIKDITSSIHFEAYRVKRLNEGSSAMANGVEEKEPEAPEM"}, "B3": {"name": "SEPT2-msfGFP human septin hexamers (complex)", "chain 1": "MSKQQPTQFINPETPGYVGFANLPNQVHRKSVKKGFEFTLMVVGESGLGKSTLINSLFLTDLYPERVIPGAAEKIERTVQIEASTVEIEERGVKLRLTVVDTPGYGDAINCRDCFKTIISYIDEQFERYLHDESGLNRRHIIDNRVHCCFYFISPFGHGLKPLDVAFMKAIHNKVNIVPVIAKADTLTLKERERLKKRILDEIEEHNIKIYHLPDAESDEDEDFKEQTRLLKASIPFSVVGSNQLIEAKGKKVRGRLYPWGVVEVENPEHNDFLKLRTMLITHMQDLQEVTQDLHYENFRSERLKRGGRKVENEDMNKDQILLEKEAELRRMQEMIARMQAQMQMQMQGGDGDGGALGHHV", "chain 2": "MAATDIARQVGEGCRTVPLAGHVGFDSLPDQLVNKSVSQGFCFNILCVGETGLGKSTLMDTLFNTKFEGEPATHTQPGVQLQSNTYDLQESNVRLKLTIVSTVGFGDQINKEDSYKPIVEFIDAQFEAYLQEELKIRRVLHTYHDSRIHVCLYFIAPTGHSLKSLDLVTMKKLDSKVNIIPIIAKADAISKSELTKFKIKITSELVSNGVQIYQFPTDDESVAEINGTMNAHLPFAVIGSTEELKIGNKMMRARQYPWGTVQVENEAHCDFVKLREMLIRVNMEDLREQTHTRHYELYRRCKLEEMGFKDTDPDSKPFSLQETYEAKRNEFLGELQKKEEEMRQMFVQRVKEKEAELKEAEKELHEKFDRLKKLHQDEKKKLEDKKKSLDDEVNAFKQRKTAAELLQSQGSQAGGSQTLKRDKEKKN", "chain 3": "MSVSARSAAAEERSVNSSTMVAQQKNLEGYVGFANLPNQVYRKSVKRGFEFTLMVVGESGLGKSTLINSLFLTDLYSPEYPGPSHRIKKTVQVEQSKVLIKEGGVQLLLTIVDTPGFGDAVDNSNCWQPVIDYIDSKFEDYLNAESRVNRRQMPDNRVQCCLYFIAPSGHGLKPLDIEFMKRLHEKVNIIPLIAKADTLTPEECQQFKKQIMKEIQEHKIKIYEFPETDDEEENKLVKKIKDRLPLAVVGSNTIIEVNGKRVRGRQYPWGVAEVENGEHCDFTILRNMLIRTHMQDLKDVTNNVHYENYRSRKLAAVTYNGVDNNKNKGQLTKSPLAQMEEERREHVAKMKKMEMEMEQVFEMKVKEKVQKLKDSEAELQRRHEQMKKNLEAQHKELEEKRRQFEDEKANWEAQQRILEQQNSSRTLEKNKKKGKIF"}, "B4": {"name": "human SEPT9_i1 with a TEV-cleavable C-terminal Strep-tag-II (natural protein)", "chain": "MKKSYSGGTRTSSGRLRRLGDSSGPALKRSFEVEEVETPNSTPPRRVQTPLLRATVASSTQKFQDLGVKNSEPSARHVDSLSQRSPKASLRRVELSGPKAAEPVSRRTELSIDISSKQVENAGAIGPSRFGLKRAEVLGHKTPEPAPRRTEITIVKPQESAHRRMEPPASKVPEVPTAPATDAAPKRVEIQMPKPAEAPTAPSPAQTLENSEPAPVSQLQSRLEPKPQPPVAEATPRSQEATEAAPSCVGDMADTPRDAGLKQAPASRNEKAPVDFGYVGIDSILEQMRRKAMKQGFEFNIMVVGQSGLGKSTLINTLFKSKISRKSVQPTSEERIPKTIEIKSITHDIEEKGVRMKLTVIDTPGFGDHINNENCWQPIMKFINDQYEKYLQEEVNINRKKRIPDTRVHCCLYFIPATGHSLRPLDIEFMKRLSKVVNIVPVIAKADTLTLEERVHFKQRITADLLSNGIDVYPQKEFDEDSEDRLVNEKFREMIPFAVVGSDHEYQVNGKRILGRKTKWGTIEVENTTHCEFAYLRDLLIRTHMQNIKDITSSIHFEAYRVKRLNEGSSAMANGVEEKEPEAPEM"}, "B5": {"name": "human SEPT9_i3 with a TEV-cleavable C-terminal Strep-tag-II (natural protein)", "chain": "MERDRISALKRSFEVEEVETPNSTPPRRVQTPLLRATVASSTQKFQDLGVKNSEPSARHVDSLSQRSPKASLRRVELSGPKAAEPVSRRTELSIDISSKQVENAGAIGPSRFGLKRAEVLGHKTPEPAPRRTEITIVKPQESAHRRMEPPASKVPEVPTAPATDAAPKRVEIQMPKPAEAPTAPSPAQTLENSEPAPVSQLQSRLEPKPQPPVAEATPRSQEATEAAPSCVGDMADTPRDAGLKQAPASRNEKAPVDFGYVGIDSILEQMRRKAMKQGFEFNIMVVGQSGLGKSTLINTLFKSKISRKSVQPTSEERIPKTIEIKSITHDIEEKGVRMKLTVIDTPGFGDHINNENCWQPIMKFINDQYEKYLQEEVNINRKKRIPDTRVHCCLYFIPATGHSLRPLDIEFMKRLSKVVNIVPVIAKADTLTLEERVHFKQRITADLLSNGIDVYPQKEFDEDSEDRLVNEKFREMIPFAVVGSDHEYQVNGKRILGRKTKWGTIEVENTTHCEFAYLRDLLIRTHMQNIKDITSSIHFEAYRVKRLNEGSSAMANGVEEKEPEAPEM"}, "B6": {"name": "human SEPT6 (natural protein)", "chain": "MAATDIARQVGEGCRTVPLAGHVGFDSLPDQLVNKSVSQGFCFNILCVGETGLGKSTLMDTLFNTKFEGEPATHTQPGVQLQSNTYDLQESNVRLKLTIVSTVGFGDQINKEDSYKPIVEFIDAQFEAYLQEELKIRRVLHTYHDSRIHVCLYFIAPTGHSLKSLDLVTMKKLDSKVNIIPIIAKADAISKSELTKFKIKITSELVSNGVQIYQFPTDDESVAEINGTMNAHLPFAVIGSTEELKIGNKMMRARQYPWGTVQVENEAHCDFVKLREMLIRVNMEDLREQTHTRHYELYRRCKLEEMGFKDTDPDSKPFSLQETYEAKRNEFLGELQKKEEEMRQMFVQRVKEKEAELKEAEKELHEKFDRLKKLHQDEKKKLEDKKKSLDDEVNAFKQRKTAAELLQSQGSQAGGSQTLKRDKEKKN"}}, "key": {"human SEPT6": {"target": "B6", "assay": "two-tag affinity co-purification of co-expressed proteins"}, "[1]": {"target": "the molecule itself", "assay": "negative-stain electron microscopy of septin polymerisation"}, "[2]": {"target": "the molecule itself", "assay": "spinning disk fluorescence microscopy of septin polymerisation"}, "native gel or EMSA": {"target": "the molecule itself", "assay": "native gel or EMSA"}, "[3]": {"target": "B1"}}}
{"binder": "B1", "values": [{"measurement": "binding result", "setting": "human SEPT6", "result": "binds"}]}
{"binder": "B2", "values": [{"measurement": "binding result", "setting": "[1]", "result": "binds"}, {"measurement": "binding result", "setting": "[2]", "result": "binds"}]}
{"binder": "B3", "values": [{"measurement": "binding result", "setting": "[1]", "result": "binds"}, {"measurement": "binding result", "setting": "[2]", "result": "binds"}]}
{"binder": "B4", "values": [{"measurement": "binding result", "setting": "native gel or EMSA", "result": "binds"}]}
{"binder": "B5", "values": [{"measurement": "binding result", "setting": "native gel or EMSA", "result": "binds"}]}
{"binder": "B6", "values": [{"measurement": "stoichiometry N", "setting": "[3]", "result": 1}]}
